Assay results published in publication PMC8080076.

Target: DEC205 (human (endogenous in blood DCs)) (UniProt O60449)
Assay: flow cytometry on cells

Sequence of UniProt O60449 (O60449 28-1722): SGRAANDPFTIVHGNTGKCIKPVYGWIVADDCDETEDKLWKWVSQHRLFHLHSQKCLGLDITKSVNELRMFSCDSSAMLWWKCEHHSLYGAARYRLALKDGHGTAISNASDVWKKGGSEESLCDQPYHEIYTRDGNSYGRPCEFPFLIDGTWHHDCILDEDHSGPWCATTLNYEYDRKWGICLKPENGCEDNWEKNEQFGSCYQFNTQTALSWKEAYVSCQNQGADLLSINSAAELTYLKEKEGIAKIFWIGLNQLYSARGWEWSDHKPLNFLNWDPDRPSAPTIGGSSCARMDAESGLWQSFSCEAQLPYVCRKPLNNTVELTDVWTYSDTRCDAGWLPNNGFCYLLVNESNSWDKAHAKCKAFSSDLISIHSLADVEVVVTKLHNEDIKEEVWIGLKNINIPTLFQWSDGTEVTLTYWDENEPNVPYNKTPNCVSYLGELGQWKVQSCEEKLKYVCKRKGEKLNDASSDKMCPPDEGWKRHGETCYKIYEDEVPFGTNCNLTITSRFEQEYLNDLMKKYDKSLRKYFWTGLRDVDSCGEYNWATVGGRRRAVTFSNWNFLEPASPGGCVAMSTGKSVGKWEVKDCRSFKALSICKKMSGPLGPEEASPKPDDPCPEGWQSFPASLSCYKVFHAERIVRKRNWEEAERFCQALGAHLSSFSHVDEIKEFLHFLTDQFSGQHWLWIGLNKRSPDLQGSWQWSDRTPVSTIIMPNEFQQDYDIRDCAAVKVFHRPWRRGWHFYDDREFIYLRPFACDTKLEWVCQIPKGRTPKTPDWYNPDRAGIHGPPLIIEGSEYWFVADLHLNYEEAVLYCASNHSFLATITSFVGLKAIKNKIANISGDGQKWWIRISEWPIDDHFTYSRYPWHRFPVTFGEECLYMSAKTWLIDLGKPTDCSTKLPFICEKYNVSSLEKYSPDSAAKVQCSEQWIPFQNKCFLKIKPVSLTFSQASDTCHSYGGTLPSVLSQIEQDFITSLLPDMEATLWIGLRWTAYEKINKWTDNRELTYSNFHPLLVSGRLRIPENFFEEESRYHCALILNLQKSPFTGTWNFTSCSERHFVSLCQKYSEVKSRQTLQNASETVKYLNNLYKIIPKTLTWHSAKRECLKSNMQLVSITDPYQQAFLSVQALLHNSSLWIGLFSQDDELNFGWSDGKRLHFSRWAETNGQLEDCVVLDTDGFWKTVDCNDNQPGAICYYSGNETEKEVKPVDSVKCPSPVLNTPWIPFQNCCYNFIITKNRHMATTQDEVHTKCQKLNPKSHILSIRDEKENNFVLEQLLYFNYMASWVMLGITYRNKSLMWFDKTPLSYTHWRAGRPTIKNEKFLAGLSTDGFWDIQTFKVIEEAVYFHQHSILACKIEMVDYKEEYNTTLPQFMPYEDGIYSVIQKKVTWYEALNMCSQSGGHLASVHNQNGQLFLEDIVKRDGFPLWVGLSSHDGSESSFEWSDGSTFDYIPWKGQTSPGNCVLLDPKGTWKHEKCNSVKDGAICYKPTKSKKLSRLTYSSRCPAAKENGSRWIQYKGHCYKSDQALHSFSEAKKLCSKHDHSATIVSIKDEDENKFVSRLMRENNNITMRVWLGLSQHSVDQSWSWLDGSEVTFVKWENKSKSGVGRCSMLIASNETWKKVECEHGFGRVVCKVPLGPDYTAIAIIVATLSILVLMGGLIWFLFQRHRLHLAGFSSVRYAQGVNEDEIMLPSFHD

“FITC-labeled HDM-derived PDI, recombinant (enzyme)” gave a percent of DEC205+ DCs bound by FITC-PDI greater than 50%.
